Laboratory results reported in publication PMC5770965, “pKID Binds to KIX via an Unstructured Transition State with Nonnative Interactions” (Biophysical Journal, 2017).
Non-standard residues stand in square brackets, D forms with d. No end group written: not given here. *: point of attachment. FITC = O=C1OC2(c3ccc(O)cc3Oc3cc(O)ccc32)c2ccc(NC(=S)*)cc21; pS = N[C@@H](COP(=O)(O)O)C(=O)O

Columns and labels:
[1] = molecular target: KIX domain of CBP KIX domain (UniProt P45481); assay: fluorescence anisotropy and stopped-flow kinetics; settings: reference: unphosphorylated KID peptide (Ser133); sites S133
KIX domain of CBP [2] = molecular target: T1, KIX domain of CBP (UniProt P45481 586-665); assay: fluorescence polarisation; equilibrium fluorescence anisotropy; KIX titrated into N-terminally FITC-labelled pKID peptide; biophysical buffer and conditions as in the accompanying article (ref. 42); KdEqub; settings: both partners purified
KIX domain of CBP [3] = molecular target: T1, KIX domain of CBP; assay: stopped-flow fluorescence (association kinetics); pseudo-first order conditions with KIX in excess over FITC-pKID; biphasic; kass,fast = gradient of the observed fast rate against KIX concentration; settings: both partners purified
KIX domain of CBP [4] = molecular target: T1, KIX domain of CBP; assay: dissociation kinetics by competition; FITC-pKID displaced from KIX by unlabeled competitor cMybTAD; kdiss = asymptote of the observed dissociation rate against competitor concentration; settings: both partners purified
KIX domain of CBP [5] = molecular target: T1, KIX domain of CBP; assay: stopped-flow fluorescence (association kinetics) + dissociation kinetics by competition; KdKin calculated as kdiss/kass,fast; settings: both partners purified
KIX domain of CBP [6] = molecular target: T1, KIX domain of CBP; assay: dissociation kinetics by competition; FITC-pKID displaced from KIX by unlabeled competitor cMybTAD; kdiss = asymptote of the observed dissociation rate against competitor concentration; settings: both partners purified; remark: listed apart in the source
KIX domain of CBP [7] = molecular target: T1, KIX domain of CBP; assay: fluorescence polarisation; equilibrium fluorescence anisotropy; KIX titrated into N-terminally FITC-labelled pKID peptide; biophysical buffer and conditions as in the accompanying article (ref. 42); KdEqub; settings: both partners purified; remark: listed apart in the source
KIX domain of CBP [8] = molecular target: T1, KIX domain of CBP; assay: stopped-flow fluorescence (association kinetics) + dissociation kinetics by competition; KdKin calculated as kdiss/kass,fast; settings: both partners purified; remark: listed apart in the source
KIX domain of CBP [9] = molecular target: T1, KIX domain of CBP; assay: stopped-flow fluorescence (association kinetics); pseudo-first order conditions with KIX in excess over FITC-pKID; biphasic; kass,fast = gradient of the observed fast rate against KIX concentration; settings: both partners purified; remark: listed apart in the source
KIX domain of CBP [10] = molecular target: T2, KIX domain of CBP (UniProt P45481 586-666); assay: fluorescence polarisation; equilibrium fluorescence anisotropy of N-terminally FITC-labelled pKID peptides with KIX; buffer and conditions as in the accompanying article (ref. 42); settings: both partners purified
T2 construct: PDB 1KDX is the cited pKID/KIX structure and need not have the same limits
T2 sequence (P45481 586-666): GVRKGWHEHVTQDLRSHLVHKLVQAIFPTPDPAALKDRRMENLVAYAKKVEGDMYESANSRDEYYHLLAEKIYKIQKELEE

T1 sequence (P45481 586-665): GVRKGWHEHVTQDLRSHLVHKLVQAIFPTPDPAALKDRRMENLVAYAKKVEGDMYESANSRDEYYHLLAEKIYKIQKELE
KIX domain of CBP KIX domain, sequence (P45481 whole entry, looked up, the tested form may be a part): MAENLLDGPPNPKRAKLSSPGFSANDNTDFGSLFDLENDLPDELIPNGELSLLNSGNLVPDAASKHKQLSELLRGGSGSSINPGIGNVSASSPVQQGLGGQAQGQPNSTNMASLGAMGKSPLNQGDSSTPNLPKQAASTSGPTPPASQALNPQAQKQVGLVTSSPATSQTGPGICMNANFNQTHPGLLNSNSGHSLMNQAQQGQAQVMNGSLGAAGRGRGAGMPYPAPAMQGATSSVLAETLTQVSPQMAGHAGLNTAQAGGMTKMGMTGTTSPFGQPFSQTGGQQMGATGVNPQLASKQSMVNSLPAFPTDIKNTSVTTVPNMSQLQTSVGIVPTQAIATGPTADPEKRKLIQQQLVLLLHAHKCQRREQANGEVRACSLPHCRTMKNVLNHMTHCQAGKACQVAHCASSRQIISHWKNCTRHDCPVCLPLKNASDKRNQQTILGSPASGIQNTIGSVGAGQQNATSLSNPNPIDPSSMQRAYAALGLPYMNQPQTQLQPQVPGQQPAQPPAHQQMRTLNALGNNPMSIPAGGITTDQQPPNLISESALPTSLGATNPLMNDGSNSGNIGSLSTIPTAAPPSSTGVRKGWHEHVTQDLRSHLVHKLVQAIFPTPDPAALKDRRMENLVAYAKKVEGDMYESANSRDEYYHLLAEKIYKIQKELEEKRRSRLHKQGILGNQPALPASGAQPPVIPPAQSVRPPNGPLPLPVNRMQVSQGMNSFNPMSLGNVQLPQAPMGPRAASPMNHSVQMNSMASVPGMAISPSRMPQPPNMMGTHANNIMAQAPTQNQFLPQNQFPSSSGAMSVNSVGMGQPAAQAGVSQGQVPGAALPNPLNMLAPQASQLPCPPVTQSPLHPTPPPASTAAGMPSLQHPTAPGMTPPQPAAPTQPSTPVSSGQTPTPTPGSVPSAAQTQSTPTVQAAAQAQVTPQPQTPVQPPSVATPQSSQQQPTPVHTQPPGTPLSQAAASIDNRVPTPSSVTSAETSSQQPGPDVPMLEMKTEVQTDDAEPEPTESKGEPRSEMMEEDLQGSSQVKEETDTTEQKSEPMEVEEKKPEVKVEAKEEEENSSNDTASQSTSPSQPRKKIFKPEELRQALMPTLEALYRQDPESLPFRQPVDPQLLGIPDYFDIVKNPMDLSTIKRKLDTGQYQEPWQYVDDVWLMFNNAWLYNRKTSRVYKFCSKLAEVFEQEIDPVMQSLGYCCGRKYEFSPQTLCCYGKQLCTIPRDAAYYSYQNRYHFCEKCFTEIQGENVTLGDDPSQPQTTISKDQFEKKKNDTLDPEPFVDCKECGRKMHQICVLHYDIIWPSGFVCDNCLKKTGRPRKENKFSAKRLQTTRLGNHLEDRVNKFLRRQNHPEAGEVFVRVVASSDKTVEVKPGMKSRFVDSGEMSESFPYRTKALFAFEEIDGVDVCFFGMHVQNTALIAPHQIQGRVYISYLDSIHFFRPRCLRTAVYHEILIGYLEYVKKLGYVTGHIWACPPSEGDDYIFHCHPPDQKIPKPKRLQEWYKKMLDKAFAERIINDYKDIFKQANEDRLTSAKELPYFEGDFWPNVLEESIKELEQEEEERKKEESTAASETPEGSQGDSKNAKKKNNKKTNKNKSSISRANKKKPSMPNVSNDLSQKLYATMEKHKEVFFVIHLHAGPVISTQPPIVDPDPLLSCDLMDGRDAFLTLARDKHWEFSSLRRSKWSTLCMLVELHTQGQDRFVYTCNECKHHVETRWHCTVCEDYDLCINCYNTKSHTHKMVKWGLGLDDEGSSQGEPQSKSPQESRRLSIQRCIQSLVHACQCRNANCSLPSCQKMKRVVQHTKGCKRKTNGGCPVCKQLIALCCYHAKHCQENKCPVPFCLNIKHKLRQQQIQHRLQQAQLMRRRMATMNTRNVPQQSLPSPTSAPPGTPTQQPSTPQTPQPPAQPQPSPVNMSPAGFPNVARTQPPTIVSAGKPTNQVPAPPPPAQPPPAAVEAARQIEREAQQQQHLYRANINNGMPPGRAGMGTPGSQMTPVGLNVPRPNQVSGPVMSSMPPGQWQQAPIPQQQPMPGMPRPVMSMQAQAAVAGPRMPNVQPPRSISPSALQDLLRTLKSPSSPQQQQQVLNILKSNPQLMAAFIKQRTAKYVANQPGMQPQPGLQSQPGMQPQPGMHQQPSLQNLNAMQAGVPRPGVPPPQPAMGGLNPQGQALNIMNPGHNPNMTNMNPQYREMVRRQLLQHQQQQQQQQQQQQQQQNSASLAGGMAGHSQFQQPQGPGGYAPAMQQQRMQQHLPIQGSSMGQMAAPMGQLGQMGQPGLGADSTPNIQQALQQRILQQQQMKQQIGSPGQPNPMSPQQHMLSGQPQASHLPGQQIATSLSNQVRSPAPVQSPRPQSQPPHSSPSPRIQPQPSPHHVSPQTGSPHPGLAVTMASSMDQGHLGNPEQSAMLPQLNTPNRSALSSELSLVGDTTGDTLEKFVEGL

Row | Molecule | Kd (KIX domain of CBP [2]) | kon (KIX domain of CBP [3]) | koff (KIX domain of CBP [4]) | Kd (KIX domain of CBP [5]) | koff (KIX domain of CBP [6]) | Kd (KIX domain of CBP [7]) | Kd (KIX domain of CBP [8]) | kon (KIX domain of CBP [9]) | other results
1 | CREB (KID / pKID region) 116-146 (from UniProt P15337-1) pSer133 pKID peptide |  |  |  |  |  |  |  |  | binding against the reference [1]: stronger
2 | {FITC}-DSVTDSQKRREILSRRP[pS]YRKILNDLSSDAP (peptide, UniProt P15337-1 116-146, looked up, also called wtFITCpKID; source: synthetic peptide, bought: Biomatik) [FITC-pKID wild-type (CREB residues 116-146, phosphorylated at Ser133)] | 110 nM | 7.3e+06 M⁻¹ s⁻¹ | 0.81 s⁻¹ | 110 ± 20 nM |  |  |  |  | 
3 | {FITC}-DSVTDSQKRRAILSRRP[pS]YRKILNDLSSDAP (peptide, UniProt P15337-1 116-146, looked up, source: synthetic peptide, bought: Biomatik) [FITC-pKID E126A] |  |  |  |  | 0.97 s⁻¹ | 170 nM | 90 ± 10 nM | 1.05e+07 M⁻¹ s⁻¹ | 
4 | {FITC}-DSVTDSQKRREILSRRP[pS]YRKALNDLSSDAP (peptide, UniProt P15337-1 116-146, looked up, source: synthetic peptide, bought: Biomatik) [FITC-pKID I137A, listing 1 of 2 here] | 21600 nM | 4.5e+06 M⁻¹ s⁻¹ | 43.9 s⁻¹ | 9730 ± 1920 nM |  |  |  |  | 
5 | {FITC}-DSVTDSQKRREILSRRP[pS]YRKILNALSSDAP (peptide, UniProt P15337-1 116-146, looked up, source: synthetic peptide, bought: Biomatik) [FITC-pKID D140A] | 260 nM | 5.3e+06 M⁻¹ s⁻¹ | 2.06 s⁻¹ | 390 ± 50 nM |  |  |  |  | 
6 | {FITC}-DSVTDSQKRREILSRRP[pS]YRKIANDLSSDAP (peptide, UniProt P15337-1 116-146, looked up, source: synthetic peptide, bought: Biomatik) [FITC-pKID L138A, listing 1 of 2 here] | 6300 nM | 2.8e+06 M⁻¹ s⁻¹ | 13.2 s⁻¹ | 4730 ± 1920 nM |  |  |  |  | 
7 | {FITC}-DSVTDSQKRREILSRRP[pS]YGKILNDLSSDAP (peptide, UniProt P15337-1 116-146, looked up, also called A135G; source: synthetic peptide, bought: Biomatik) [FITC-pKID R135G] |  |  |  |  | 10.1 s⁻¹ | 1160 nM | 1260 ± 70 nM | 8e+06 M⁻¹ s⁻¹ | 
8 | {FITC}-DSVTDSQKAREILSRRP[pS]YRKILNDLSSDAP (peptide, UniProt P15337-1 116-146, looked up, source: synthetic peptide, bought: Biomatik) [FITC-pKID R124A] | 60 nM | 8.4e+06 M⁻¹ s⁻¹ | 0.51 s⁻¹ | 60 ± 20 nM |  |  |  |  | 
9 | {FITC}-DSVTDSQKRREILSRRP[pS]ARKILNDLSSDAP (peptide, UniProt P15337-1 116-146, looked up, source: synthetic peptide, bought: Biomatik) [FITC-pKID Y134A, listing 1 of 2 here] | 111000 nM |  |  |  |  |  |  |  | 
10 | {FITC}-DSVTDSQKRREILSRRP[pS]YRKILNDLSADAP (peptide, UniProt P15337-1 116-146, looked up, source: synthetic peptide, bought: Biomatik) [FITC-pKID S143A] |  |  |  |  | 0.71 s⁻¹ | 70 nM | 70 ± 10 nM | 9.7e+06 M⁻¹ s⁻¹ | 
11 | {FITC}-DSVGDSQKRREILSRRP[pS]YRKILNDLSSDAP (peptide, UniProt P15337-1 116-146, looked up, the peptide has Gly in place of the natural Thr119; also called A119G; source: synthetic peptide, bought: Biomatik) [FITC-pKID T119G] |  |  |  |  | 0.67 s⁻¹ | 80 nM | 90 ± 10 nM | 7.1e+06 M⁻¹ s⁻¹ | 
12 | {FITC}-DSVTDSQKRREILSRAP[pS]YRKILNDLSSDAP (peptide, UniProt P15337-1 116-146, looked up, source: synthetic peptide, bought: Biomatik) [FITC-pKID R131A] | 1230 nM | 9.5e+06 M⁻¹ s⁻¹ | 7.66 s⁻¹ | 810 ± 140 nM |  |  |  |  | 
13 | {FITC}-DSVTDSQKRREIASRRP[pS]YRKILNDLSSDAP (peptide, UniProt P15337-1 116-146, looked up, source: synthetic peptide, bought: Biomatik) [FITC-pKID L128A, listing 1 of 2 here] | 2490 nM | 7.9e+06 M⁻¹ s⁻¹ | 15.7 s⁻¹ | 2000 ± 160 nM |  |  |  |  | 
14 | {FITC}-DSVTDSQKRREILSRRP[pS]YRKILNDLASDAP (peptide, UniProt P15337-1 116-146, looked up, source: synthetic peptide, bought: Biomatik) [FITC-pKID S142A] | 120 nM | 1.13e+07 M⁻¹ s⁻¹ | 0.83 s⁻¹ | 70 ± 10 nM |  |  |  |  | 
15 | {FITC}-DSVTDSQKRREILSRRP[pS]YRKALNDLSSDAP (peptide, UniProt P15337-1 116-146, looked up, source: synthetic peptide, bought: Biomatik) [FITC-pKID I137A, listing 2 of 2 here] |  |  |  |  |  |  |  |  | fold increase of Kd against wild type (KIX domain of CBP [10]): ~100 fold
16 | {FITC}-DSVTDSQKRREIASRRP[pS]YRKILNDLSSDAP (peptide, UniProt P15337-1 116-146, looked up, source: synthetic peptide, bought: Biomatik) [FITC-pKID L128A, listing 2 of 2 here] |  |  |  |  |  |  |  |  | fold increase of Kd against wild type (KIX domain of CBP [10]): > 10 fold
17 | {FITC}-DSVTDSQKRREILSRRP[pS]YRKIANDLSSDAP (peptide, UniProt P15337-1 116-146, looked up, source: synthetic peptide, bought: Biomatik) [FITC-pKID L138A, listing 2 of 2 here] |  |  |  |  |  |  |  |  | fold increase of Kd against wild type (KIX domain of CBP [10]): > 10 fold
18 | {FITC}-DSVTDSQKRREILSRRP[pS]ARKILNDLSSDAP (peptide, UniProt P15337-1 116-146, looked up, source: synthetic peptide, bought: Biomatik) [FITC-pKID Y134A, listing 2 of 2 here] |  |  |  |  |  |  |  |  | fold increase of Kd against wild type (KIX domain of CBP [10]): ~1000 fold
19 | {FITC}-DSVTDSQKRREILSRRPSYRKILNDLSSDAP (peptide, UniProt P15337-1 116-146, looked up, 'pSer to Ser' in the text; also called ∆pS133; pS133S; source: synthetic peptide, bought: Biomatik) [FITC-KID, not phosphorylated at Ser133 (CREB residues 116-146)] | 28700 nM | 7.6e+06 M⁻¹ s⁻¹ | 56.7 s⁻¹ | 7500 ± 1300 nM |  |  |  |  | 

More lines, main results first:

Row | Kd (KIX domain of CBP [2]) | kon (KIX domain of CBP [3]) | koff (KIX domain of CBP [4]) | Kd (KIX domain of CBP [5]) | koff (KIX domain of CBP [6]) | Kd (KIX domain of CBP [7]) | Kd (KIX domain of CBP [8]) | kon (KIX domain of CBP [9]) | Molecule | other results
20 |  |  |  |  | 10.5 s⁻¹ | 2160 nM | 1270 ± 250 nM | 8.3e+06 M⁻¹ s⁻¹ | {FITC}-DSVTDSQKRREILSRRP[pS]YRGILNDLSSDAP (peptide, UniProt P15337-1 116-146, looked up, also called A136G; source: synthetic peptide, bought: Biomatik) [FITC-pKID K136G] | 
21 |  |  |  |  | 0.94 s⁻¹ | 100 nM | 90 ± 10 nM | 1.02e+07 M⁻¹ s⁻¹ | {FITC}-DSVTDSQKRREILSRRP[pS]YRAILNDLSSDAP (peptide, UniProt P15337-1 116-146, looked up, source: synthetic peptide, bought: Biomatik) [FITC-pKID K136A] | 
22 |  |  |  |  | 2.09 s⁻¹ | 250 nM | 280 ± 30 nM | 7.6e+06 M⁻¹ s⁻¹ | {FITC}-DSVTDSQKRRGILSRRP[pS]YRKILNDLSSDAP (peptide, UniProt P15337-1 116-146, looked up, also called A126G; source: synthetic peptide, bought: Biomatik) [FITC-pKID E126G] | 
23 |  |  |  |  | 3.22 s⁻¹ | 440 nM | 390 ± 10 nM | 8.3e+06 M⁻¹ s⁻¹ | {FITC}-DSVTDSQKRREILSRRG[pS]YRKILNDLSSDAP (peptide, UniProt P15337-1 116-146, looked up, also called A132G; source: synthetic peptide, bought: Biomatik) [FITC-pKID P132G] | 
24 |  |  |  |  | 1.2 s⁻¹ | 90 nM | 190 ± 20 nM | 6.3e+06 M⁻¹ s⁻¹ | {FITC}-DSVTDSQKRREILSRRP[pS]YRKILNDLSGDAP (peptide, UniProt P15337-1 116-146, looked up, the text prints S143G; also called A143G; source: synthetic peptide, bought: Biomatik) [FITC-pKID S143G] | 
25 |  |  |  |  | 0.99 s⁻¹ | 70 nM | 130 ± 10 nM | 7.7e+06 M⁻¹ s⁻¹ | {FITC}-DSVTDSQKRREILSRRA[pS]YRKILNDLSSDAP (peptide, UniProt P15337-1 116-146, looked up, source: synthetic peptide, bought: Biomatik) [FITC-pKID P132A] | 
26 | 220 nM | 6.3e+06 M⁻¹ s⁻¹ | 2.17 s⁻¹ | 340 ± 30 nM |  |  |  |  | {FITC}-DSVTDSQKRAEILSRRP[pS]YRKILNDLSSDAP (peptide, UniProt P15337-1 116-146, looked up, source: synthetic peptide, bought: Biomatik) [FITC-pKID R125A] | 
27 |  |  |  |  | 2.5 s⁻¹ | 100 nM | 240 ± 20 nM | 1.05e+07 M⁻¹ s⁻¹ | {FITC}-DSVTDSQKRREILSRRP[pS]YAKILNDLSSDAP (peptide, UniProt P15337-1 116-146, looked up, source: synthetic peptide, bought: Biomatik) [FITC-pKID R135A] | 
28 |  |  |  |  | 0.88 s⁻¹ | 150 nM | 120 ± 10 nM | 7.3e+06 M⁻¹ s⁻¹ | {FITC}-DSVADSQKRREILSRRP[pS]YRKILNDLSSDAP (peptide, UniProt P15337-1 116-146, looked up, source: synthetic peptide, bought: Biomatik) [FITC-pKID T119A] | 
29 | 120 nM | 6.9e+06 M⁻¹ s⁻¹ | 0.71 s⁻¹ | 100 ± 20 nM |  |  |  |  | {FITC}-DSVTDAQKRREILSRRP[pS]YRKILNDLSSDAP (peptide, UniProt P15337-1 116-146, looked up, source: synthetic peptide, bought: Biomatik) [FITC-pKID S121A] | 
